Results on one substance are retold here after patent US20230212312A1.

This test has as its target complement factor C1q. Nature of the test: FACS, C1q on antibody-coated BT-474 cells, 10 ug/ml each. In general terms: In flow cytometry, cells or beads pass a laser one at a time.

Sequence of complement factor C1q (P02745 23-245, chain 1 of 3): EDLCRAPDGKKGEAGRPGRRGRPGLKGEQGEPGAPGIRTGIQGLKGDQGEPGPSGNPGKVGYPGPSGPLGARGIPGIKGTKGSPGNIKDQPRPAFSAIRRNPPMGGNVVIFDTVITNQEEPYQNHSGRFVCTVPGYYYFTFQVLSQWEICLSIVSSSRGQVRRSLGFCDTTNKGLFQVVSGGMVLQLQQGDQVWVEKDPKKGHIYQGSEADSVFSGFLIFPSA
Sequence of complement factor C1q (P02746 28-253, chain 2 of 3, further chain): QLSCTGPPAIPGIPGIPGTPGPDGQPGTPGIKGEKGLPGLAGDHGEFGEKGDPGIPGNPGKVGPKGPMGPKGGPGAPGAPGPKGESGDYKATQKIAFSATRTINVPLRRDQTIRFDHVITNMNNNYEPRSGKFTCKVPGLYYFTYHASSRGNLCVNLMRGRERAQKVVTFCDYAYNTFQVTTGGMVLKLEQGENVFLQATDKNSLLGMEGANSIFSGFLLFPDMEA
Sequence of complement factor C1q (P02747 29-245, chain 3 of 3, further chain): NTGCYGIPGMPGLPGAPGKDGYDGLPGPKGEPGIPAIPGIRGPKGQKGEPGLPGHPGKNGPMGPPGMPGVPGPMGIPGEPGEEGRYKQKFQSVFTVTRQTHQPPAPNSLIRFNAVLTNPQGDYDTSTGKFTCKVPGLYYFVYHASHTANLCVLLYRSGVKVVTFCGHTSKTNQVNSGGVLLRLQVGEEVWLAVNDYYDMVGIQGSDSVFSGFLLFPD

As to “combination of trastuzumab and pertuzumab”, the PE-signal (geomean) is 2160.
